Changes are numbered by the printed parent chain.
T1: Cynomolgus monkey CLDN18 (cynomolgus monkey)
T1 construct: On transfected HEK293-6E cells; also called Cyno CLDN18; cynomologus monkey CLDN18.2 ortholog
T1 chain: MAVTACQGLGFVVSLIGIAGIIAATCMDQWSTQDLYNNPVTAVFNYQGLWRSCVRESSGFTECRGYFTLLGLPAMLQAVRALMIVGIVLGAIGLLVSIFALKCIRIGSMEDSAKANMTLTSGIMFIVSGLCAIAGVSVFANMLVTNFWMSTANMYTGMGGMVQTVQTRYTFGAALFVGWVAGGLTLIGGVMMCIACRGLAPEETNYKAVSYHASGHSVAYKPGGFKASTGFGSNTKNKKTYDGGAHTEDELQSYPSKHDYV

T2: Mouse CLDN18 A2.1 (mouse, UniProt P56857 10-264)
T2 construct: On transfected HEK293-6E cells; also called Mouse CLDN18 2.1; mouse CLDN18.2 ortholog
T2 chain: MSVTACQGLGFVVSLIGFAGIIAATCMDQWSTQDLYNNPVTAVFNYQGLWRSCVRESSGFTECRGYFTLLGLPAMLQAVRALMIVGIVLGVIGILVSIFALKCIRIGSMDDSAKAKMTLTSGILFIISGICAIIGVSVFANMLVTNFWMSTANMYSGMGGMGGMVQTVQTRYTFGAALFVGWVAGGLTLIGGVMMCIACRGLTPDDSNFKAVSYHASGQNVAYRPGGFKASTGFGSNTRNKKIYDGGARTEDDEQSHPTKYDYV

B1: v38740 (other)
heavy 1: EVQLVESGGGLVQPGGSLRLSCAASGVTFNYYGMSWIRQAPGKGLEWVASITSSGGRIYYPDSVKGRFTISRENTQKTLYLQMNSLRAEDTAVYYCTLDGRDGWVAYWGQGTLVTVSSASTKGPSVFPLAPSSKSTSGGTAALGCLVKDYFPEPVTVSWNSGALTSGVHTFPAVLQSSGLYSLSSVVTVPSSSLGTQTYICNVNHKPSNTKVDKKVEPKSCDKTHTCPPCPAPEAAGGPSVFLFPPKPKDTLMISRTPEVTCVVVSVSHEDPEVKFNWYVDGVEVHNAKTKPREEQYNSTYRVVSVLTVLHQDWLNGKEYKCKVSNKALPAPIEKTISKAKGQPREPQVYVYPPSRDELTKNQVSLTCLVKGFYPSDIAVEWESNGQPENNYKTTPPVLDSDGSFALVSKLTVDKSRWQQGNVFSCSVMHEALHNHYTQKSLSLSPGGGGGSGDRPWNPPTFSPALLVVTEGDNATFTCSFSNTSESFVLNWYRMSPSNQTDKLAAFPEDRSQPGQDARFRVTQLPNGRDFHMSVVRARRNDSGTYLCGAISLAPKAQIKESLRAELRVTE
light: NFMLTQPHSVSESPGKTVTISCKRNTGNIGSNYVNWYQQHEGSSPTTIIYRNDKRPDGVSDRFSGSIDRSSKSASLTISNLKTEDEADYFCQSYSSGFIFGGGTKLTVLGQPKAAPSVTLFPPSSEELQANKATLVCLISDFYPGAVTVAWKADSSPVKAGVETTTPSKQSNNKYAASSYLSLTPEQWKSHRSYSCQVTHEGSTVEKTVAPTECS
heavy 2: QVQLVESGGGLVQPGGSLRLSCSVSGIDLSSNPMIWVRQAPGKGLQYIGIIDTDGSTYYADWAKGRFTISKDSTTVYLQINSPRAEDTAVYYCARRLHGSSNGYYDDLWGQGTLVTVSSGGGGSGGGGSGGGGSGGGGSDGQMTQSPSSVSASVGDRVTITCQASQSIYSYLSWYQQKPGQRPKLLIYKASTLASGVPSRFSGSGSGTDFTLTISSVQPEDFATYYCQQGYTVTNVDKNTFGGGTKVEIKAAEPKSSDKTHTCPPCPAPEAAGGPSVFLFPPKPKDTLMISRTPEVTCVVVSVSHEDPEVKFNWYVDGVEVHNAKTKPREEQYNSTYRVVSVLTVLHQDWLNGKEYKCKVSNKALPAPIEKTISKAKGQPREPQVYVLPPSRDELTKNQVSLLCLVKGFYPSDIAVEWESNGQPENNYLTWPPVLDSDGSFFLYSKLTVDKSRWQQGNVFSCSVMHEALHNHYTQKSLSLSPG
notes: CD3 Fab x Cldn18.2 scFv Fc, wildtype (WT) PD-1 attached to HC1 (C-term)
B2: v38744 (other)
heavy 1: EVQLVESGGGLVQPGGSLRLSCAASGVTFNYYGMSWIRQAPGKGLEWVASITSSGGRIYYPDSVKGRFTISRENTQKTLYLQMNSLRAEDTAVYYCTLDGRDGWVAYWGQGTLVTVSSASTKGPSVFPLAPSSKSTSGGTAALGCLVKDYFPEPVTVSWNSGALTSGVHTFPAVLQSSGLYSLSSVVTVPSSSLGTQTYICNVNHKPSNTKVDKKVEPKSCDKTHTCPPCPAPEAAGGPSVFLFPPKPKDTLMISRTPEVTCVVVSVSHEDPEVKFNWYVDGVEVHNAKTKPREEQYNSTYRVVSVLTVLHQDWLNGKEYKCKVSNKALPAPIEKTISKAKGQPREPQVYVYPPSRDELTKNQVSLTCLVKGFYPSDIAVEWESNGQPENNYKTTPPVLDSDGSFALVSKLTVDKSRWQQGNVFSCSVMHEALHNHYTQKSLSLSPGGGGGSGQVQLVESGGGLVQPGGSLRLSCSVSGIDLSSNPMIWVRQAPGKGLQYIGIIDTDGSTYYADWAKGRFTISKDSTTVYLQINSPRAEDTAVYYCARRLHGSSNGYYDDLWGQGTLVTVSSGGGGSGGGGSGGGGSGGGGSDGQMTQSPSSVSASVGDRVTITCQASQSIYSYLSWYQQKPGQRPKLLIYKASTLASGVPSRFSGSGSGTDFTLTISSVQPEDFATYYCQQGYTVTNVDKNTFGGGTKVEIK
light: NPPTFSPALLVVTEGDNATFTCSFSNTSESFVLNWYRMSPSNQTDKLAAFPEDRSQPGQDARFRVTQLPNGRDFHMSVVRARRNDSGTYLCGAISLAPKAQIKESLRAELRVTEGGGGSGNFMLTQPHSVSESPGKTVTISCKRNTGNIGSNYVNWYQQHEGSSPTTIIYRNDKRPDGVSDRFSGSIDRSSKSASLTISNLKTEDEADYFCQSYSSGFIFGGGTKLTVLGQPKAAPSVTLFPPSSEELQANKATLVCLISDFYPGAVTVAWKADSSPVKAGVETTTPSKQSNNKYAASSYLSLTPEQWKSHRSYSCQVTHEGSTVEKTVAPTECS
heavy 2: B1 heavy 2
notes: CD3 Fab with C-term Cldn18.2 scFv x Cldn18.2 scFv Fc with wildtype (WT) PD-1 attached to CD3 LC (N-term)
B3: v38741 (other)
heavy 1: B2 heavy 1
light: NPPTFSPALLVVTEGDNATFTCSFSNTSESFRLVWHRESPGYETDTLASFPEDRSTPLPDARFRVTQLPNGRDFHMSVVRARRNDSGTYVCGAIAFHPVIQIKESLRAELRVTEGGGGSGNFMLTQPHSVSESPGKTVTISCKRNTGNIGSNYVNWYQQHEGSSPTTIIYRNDKRPDGVSDRFSGSIDRSSKSASLTISNLKTEDEADYFCQSYSSGFIFGGGTKLTVLGQPKAAPSVTLFPPSSEELQANKATLVCLISDFYPGAVTVAWKADSSPVKAGVETTTPSKQSNNKYAASSYLSLTPEQWKSHRSYSCQVTHEGSTVEKTVAPTECS
heavy 2: B1 heavy 2
B4: v38743 (other)
heavy 1: B2 heavy 1
light: B2 light with A100L
heavy 2: B1 heavy 2
B5: v37407 (antibody, human IgG1, V domains shown)
VH: QVQLVESGGGLVQPGGSLRLSCSVSGIDLSSNPMIWVRQAPGKGLEYIGIIDTDGSTYYADWAKGRFTISKDSTTVYLQMNSLRAEDTAVYYCARRLHGSSNGYYDDLWGQGTLVTVSS
VL: DGQMTQSPSSVSASVGDRVTITCQASQSIYSYLSWYQQKPGQRPKLLIYKASTLASGVPSRFSGSGSGTDFTLTISSVQPEDFATYYCQQGYTVTNVDKNTFGGGTKVEIK
notes: Humanized, recombinant human IgG1-based monoclonal antibody; also called H4-L4
B6: v37409 (antibody, human IgG1, V domains shown)
VH: QVQLVESGGGLVQPGGSLRLSCSVSGIDLSSNPMIWVRQAPGKGLEYIGIIDTDGSTYYADWAKGRFTISKDSSKNTVYLQMNSLRAEDTAVYYCARRLHGSSNGYYDDLWGQGTLVTVSS
VL: B5 VL
notes: Humanized, recombinant human IgG1-based monoclonal antibody; also called H2-L4
B7: v37408 (antibody, human IgG1, V domains shown)
VH: B5 VH
VL: B5 VL with F83A, I110V
notes: Humanized, recombinant human IgG1-based monoclonal antibody; also called H4-L2
B8: v37411 (antibody, human IgG1, V domains shown)
VH: B5 VH with E46Q, M80I, L83P
VL: B5 VL
notes: Humanized, recombinant human IgG1-based monoclonal antibody; also called H5-L4
B9: v37410 (antibody, human IgG1, V domains shown)
VH: B6 VH with E46Q
VL: B5 VL
notes: Humanized, recombinant human IgG1-based monoclonal antibody; also called H3-L4

molecular target: Human CD3 (recombinant) (human); test: SPR, CD3 amine-coupled, variant as analyte, 1:1 model
Sequence (chain, as listed by the source): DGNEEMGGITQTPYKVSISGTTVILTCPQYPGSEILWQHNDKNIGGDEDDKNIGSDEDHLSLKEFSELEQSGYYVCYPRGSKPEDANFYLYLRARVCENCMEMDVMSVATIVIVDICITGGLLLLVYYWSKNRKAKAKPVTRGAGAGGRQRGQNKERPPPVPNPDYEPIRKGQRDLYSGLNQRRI

Kd [nM] | Binder
30 | B1
190 | B2
18 | B3
120 | B4

molecular target: T3, Human CLDN18.1 (human, UniProt P56856 1-261); test: FACS, Expi293F supernatants on transfected HEK293-6E cells
T3 construct: On transfected HEK293-6E cells
T3 sequence (P56856 whole entry): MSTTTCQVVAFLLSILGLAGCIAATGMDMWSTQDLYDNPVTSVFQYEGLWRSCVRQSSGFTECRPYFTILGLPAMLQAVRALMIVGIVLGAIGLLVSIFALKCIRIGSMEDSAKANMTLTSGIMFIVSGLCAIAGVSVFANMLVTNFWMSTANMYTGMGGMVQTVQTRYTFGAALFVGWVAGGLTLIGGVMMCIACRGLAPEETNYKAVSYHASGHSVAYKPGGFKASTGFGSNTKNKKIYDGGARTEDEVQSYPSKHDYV

binding result | Binder
no binding | B5
no binding | B6
no binding | B7
no binding | B8
no binding | B9

molecular target: T4, Human PD-L1 (human, UniProt Q9NZQ7 19-239); test: SPR, PD-L1 amine-coupled, variant as analyte, 1:1 model
T4 construct: Amine-coupled to a CM5 chip for SPR; also called recombinant human PD-L1
T4 sequence (Q9NZQ7 19-239 limits assumed): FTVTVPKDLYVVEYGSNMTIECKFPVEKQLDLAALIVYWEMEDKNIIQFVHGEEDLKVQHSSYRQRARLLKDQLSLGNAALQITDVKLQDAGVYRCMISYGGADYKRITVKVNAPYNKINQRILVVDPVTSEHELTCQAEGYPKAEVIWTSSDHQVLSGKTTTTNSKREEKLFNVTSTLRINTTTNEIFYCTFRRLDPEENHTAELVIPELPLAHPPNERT

Kd [nM] | Binder
510 | B1
1900 | B2
95 | B3
220 | B4

molecular target: T5, Human CLDN18.2 (human); test: FACS on transfected HEK293-6E cells, 4 parameter logistic fit
T5 construct: On transfected HEK293-6E cells; also called Claudin18.2

Bmax | EC50 [nM] | Binder
2040 | 1.54 | B5
1960 | 1.22 | B6
2190 | 1.87 | B7
2170 | 1.05 | B8
1910 | 0.97 | B9

Molecular target: T1, Cynomolgus monkey CLDN18
Test: as above

Bmax | EC50 [nM] | Binder
1410 | 0.24 | B5
1500 | 0.35 | B6
1520 | 0.36 | B7
1730 | 0.37 | B8
1500 | 0.31 | B9

Molecular target: T2, Mouse CLDN18 A2.1
Test: as above

Bmax | EC50 [nM] | Binder
1540 | 0.8 | B5
1530 | 0.89 | B6
1920 | 2.65 | B7
1790 | 1.03 | B8
1690 | 1.02 | B9

From patent publication US20250019440A1 (Zymeworks, published 2025)
